Reference: patent US20120171123A1, “USES AND COMPOSITIONS FOR TREATMENT OF RHEUMATOID ARTHRITIS” (priority 2006, published 2012)

Columns and labels:
[1] = tested on: patients with RA who had failed prior treatment with infliximab; assay: Adalimumab after failed infliximab: HAQ; assay type: in vivo, human
Excerpt: Patients eligible to participate in the study included those with long-standing, moderate to severe RA who had terminated infliximab therapy because of lack or loss of efficacy and/or intolerance/side effects. […] Follow-up visits for safety and efficacy monitoring were scheduled at 2, 8, and 16 weeks. […] Efficacy parameters included TJC28 and SJC28; DAS28; ACR20, ACR50 Response; Moderate EULAR response; and HAQ. Subgroup analysis by reason for discontinuation included: • in case of discontinuation due to lack or loss of efficacy, patients were counted in the corresponding group regardless of additional cause of intolerance. • The subgroup “Discontinuation due to intolerance” was exclusive.

[2] = tested on: patients with active rheumatoid arthritis; details: Study A (N=2008), 12 weeks; cited from earlier work
[3] = tested on: patients with moderate to severe rheumatoid arthritis; assay: Study C: EULAR response; assay type: in vivo, human; details: 12 weeks
Procedure: The Canadian Adalimumab Clinical Trial (Study C) was an open-label, multi-center, Phase IIIb study conducted in Canada. […] Efficacy and safety were assessed at baseline, 4, 8, and 12 weeks. Efficacy assessments included tender joint count (TJC 0-28), swollen joint count (SJC 0-28), Disease Activity Score 28 (DAS28), Health Assessment Questionnaire (HAQ), and EULAR response. This was a preliminary analysis of 236 patients. The sample size for each outcome variable is based on the data available at the time of the analysis. The data from this preliminary analysis were compared with the Week 12 data from Study A (N=2008).

[4] = tested on: patients with early vs. long-standing RA; assay: Safety of adalimumab in global clinical trials, early vs long-standing RA (serious adverse event rates, demyelinating disease, lymphoma)
Excerpt: Study J was a 2-year randomized controlled trial in patients with early RA (disease duration<3 years). Participants in these clinical trials and in other phase Mb studies, were routinely evaluated for safety. Reports of serious adverse events (SAE) were tabulated using MedDRA coding by events per 100-patient-years (E/100PY). SAE rates were compared with respect to disease duration between patients with early (<3 yrs) and long-standing RA.

[5] = tested on: patients with active rheumatoid arthritis; details: Study A (N=2008), 12 weeks; cited from earlier work; remark: listed apart in the source
[6] = All Trials adalimumab (4870 PY), data for registration
[7] = Combined (long-standing + early RA)
[8] = Early RA, Study J (N=542; 917 PY)
[9] = Early RA, Study J, N (Exposure) 542 (917)
[10] = Long-standing RA, 31-Aug.-2004 (N=10,050; 12,066 PY)
[11] = Long-standing RA, 31-Aug.-2004, N (Exposure) 10,050 (12,066)

adalimumab: human anti-TNF mAb (HUMIRA, Abbott Laboratories), described in U.S. Pat. No. 6,090,382 as D2E7
change in HAQ ([1]; week 16, all (n=37)): −0.25 | change in HAQ ([1]; week 16, infliximab stopped for intolerance (n=5)): −0.15 | change in HAQ ([1]; week 16, infliximab stopped for loss of response (n=19)): −0.36 | change in HAQ ([1]; week 16, infliximab stopped for no response (n=13)): −0.23 | SJC (0-28), change from baseline, median [2]: −7 | TJC (0-28), change from baseline, median [2]: −10 | Good EULAR response [3]: 18% | Moderate EULAR response [3]: 79% | EULAR response, % good ([3]; Study C, preliminary analysis): 18 (121) % | EULAR response, % moderate ([3]; Study C, preliminary analysis): 78 (121) % | Malignancies [4, 6]: 0.006 N/PY | Pneumonia [4, 6]: 0.008 N/PY | TB [4, 6]: 0.003 N/PY | Total lymphomas, Expected [4, 7]: 5.16 cases | Total lymphomas, Observed [4, 7]: 15 cases | Total lymphomas, SIR [4, 7]: 2.91 | Total lymphomas, Expected ([4]; Early RA): 0.37 cases | Total lymphomas, Observed ([4]; Early RA): 0 cases | Total lymphomas, SIR ([4]; Early RA): 0 | cases of lymphoma ([4]; Early RA): No cases | Congestive Heart Failure rate [4, 8]: 0.11 E/100PY | Demyelinating Diseases rate [4, 8]: 0.00 E/100PY | Lymphoma rate [4, 8]: 0.00 E/100PY | Pancytopenia rate [4, 8]: 0.00 E/100PY | Pneumonia (serious) rate [4, 8]: 0.55 E/100PY | SLE/Lupus-like Syndrome rate [4, 8]: 0.00 E/100PY | Septic Arthritis rate [4, 8]: 0.22 E/100PY | Serious Infections rate [4, 8]: 1.85 E/100PY | Tuberculosis rate [4, 8]: 0.11 E/100PY | Urinary Tract Infections (serious) rate [4, 8]: 0.11 E/100PY | Cases of Guillain-Barre syndrome [4, 9]: 0 cases | Cases of Multiple sclerosis [4, 9]: 0 cases | Cases of Non-specific demyelination [4, 9]: 0 cases | Hodgkin's, Expected ([4]; Long-standing RA): 0.36 cases | Hodgkin's, Observed ([4]; Long-standing RA): 1 cases | Hodgkin's, SIR ([4]; Long-standing RA): 2.78 | NHL, Expected ([4]; Long-standing RA): 4.32 cases | NHL, Observed ([4]; Long-standing RA): 14 cases | NHL, SIR ([4]; Long-standing RA): 3.24 | Total lymphomas, Expected ([4]; Long-standing RA): 4.68 cases | Total lymphomas, Observed ([4]; Long-standing RA): 15 cases | Total lymphomas, SIR ([4]; Long-standing RA): 3.21 | Congestive Heart Failure rate [4, 10]: 0.26 E/100PY | Demyelinating Diseases rate [4, 10]: 0.07 E/100PY | Lymphoma rate [4, 10]: 0.11 E/100PY | Pancytopenia rate [4, 10]: 0.02 E/100PY | Pneumonia (serious) rate [4, 10]: 0.87 E/100PY | SLE/Lupus-like Syndrome rate [4, 10]: 0.06 E/100PY | Septic Arthritis rate [4, 10]: 0.46 E/100PY | Serious Infections rate [4, 10]: 4.79 E/100PY | Tuberculosis rate [4, 10]: 0.24 E/100PY | Urinary Tract Infections (serious) rate [4, 10]: 0.38 E/100PY | Cases of Guillain-Barre syndrome [4, 11]: 2 cases | Cases of Multiple sclerosis [4, 11]: 4 cases | Cases of Non-specific demyelination [4, 11]: 2 cases | lymphoma combined SIR ([4]; all RA patients in adalimumab clinical trials, 95% CI 1.63-4.80): 2.91 | cases of demyelinating diseases ([4]; early RA (Study J)): No cases | cases of demyelinating diseases ([4]; long-standing RA, through Aug. 31, 2004): Eight | cases of lymphoma ([4]; long-standing RA, through August 2004): Fifteen | EULAR response, % good [5]: 34% | EULAR response, % moderate [5]: 82%
